Measurements as given in publication doi:10.1101/2025.01.23.634444.

Biological target: VraS-H6x (recombinant full-length histidine kinase VraS of Staphylococcus aureus with C-terminal H6x tag) (Staphylococcus aureus USA300-TCH1516)
Assay: SEC

VraS-H6x (recombinant full-length histidine kinase VraS of Staphylococcus aureus with C-terminal H6x tag) (enzyme), sequence (Q5HEN9 whole entry): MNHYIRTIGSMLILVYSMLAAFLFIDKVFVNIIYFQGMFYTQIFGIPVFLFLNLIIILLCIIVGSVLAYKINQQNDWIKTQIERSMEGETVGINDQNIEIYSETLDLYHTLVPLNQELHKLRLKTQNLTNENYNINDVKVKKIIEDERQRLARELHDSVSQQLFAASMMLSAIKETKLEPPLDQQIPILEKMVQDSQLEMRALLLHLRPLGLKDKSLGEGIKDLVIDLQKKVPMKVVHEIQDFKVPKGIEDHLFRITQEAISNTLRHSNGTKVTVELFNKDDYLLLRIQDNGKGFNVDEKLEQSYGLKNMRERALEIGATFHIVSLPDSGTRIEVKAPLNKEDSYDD

“VraS-H6x (recombinant full-length histidine kinase VraS of Staphylococcus aureus with C-terminal H6x tag) (enzyme)” gave a stoichiometry N of 2.
